Assay [1] has as its target CD3 on Jurkat靶标细胞 (human) (UniProt P07766). Nature of the assay: flow cytometry, culture supernatant of the negative control sdAb on Jurkat cells (TG1 background supernatant: 132.03). For orientation: In flow cytometry, cells or beads pass a laser one at a time.
Assay [2] has as its target T1, CD3-His蛋白(MP-5) (human, UniProt P07766 23-126).
T1 construct: Immunogen and panning antigen; also called CD3蛋白; not shown: His tag
The assay can be described thus: BLI (Octet RED96) off-rate screen, sdAb-SASA from expression medium captured on BSA-coated biosensor, 100 nM CD3 in solution, 30°C, 1:1 Langmuir model. A general note: In BLI a coated tip is dipped into the sample, and binding shifts an interference pattern.

Assay [3] has as its target CD3 on Jurkat靶标细胞 (human) (UniProt P07766). The assay can be described thus: flow cytometry, culture supernatant on Jurkat cells.

T1 sequence (P07766 23-126): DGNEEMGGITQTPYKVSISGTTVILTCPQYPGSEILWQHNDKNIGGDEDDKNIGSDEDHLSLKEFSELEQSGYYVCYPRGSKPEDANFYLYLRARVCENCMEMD

NC-sdAb(相同形式的非相关性sdAb) (VHH): the MFI in assay [1] worked out at 115 MFI.

B1: 抗CD3单域抗体 A30249 (VHH)
VHH: QVKLEESGGGLVQAGGSLRVSCTASGRTFDTMGWFRQAPGKEREFVAAVRWSSGNTLYGNTVKGRFTISRDTATNTVYLQMSSLKHEDTAVYYCAARVGGRGAADHWGQGTQVTVSS
notes: Llama sdAb from a phage display library; Tested as sdAb-SASA protein in crude expression medium / culture supernatant, not purified; also called sdAb; sdAb-SASA; not shown: SASA fusion partner from the pFASEBA vector (sdAb-SASA protein in expression medium)
For orientation: koff means a measure of how fast the partners let go of each other. Regarding B1, in assay [2], the koff was found to be 4.92e-05 s⁻¹. The same molecule gave an MFI in assay [3] of 217 MFI.

Values taken from patent CN106084046A (UNIV SUN YAT SEN, dated 2016).
